For one assay, the target named is T1, full-length CHMP2A (UniProt O43633).
T1 sequence: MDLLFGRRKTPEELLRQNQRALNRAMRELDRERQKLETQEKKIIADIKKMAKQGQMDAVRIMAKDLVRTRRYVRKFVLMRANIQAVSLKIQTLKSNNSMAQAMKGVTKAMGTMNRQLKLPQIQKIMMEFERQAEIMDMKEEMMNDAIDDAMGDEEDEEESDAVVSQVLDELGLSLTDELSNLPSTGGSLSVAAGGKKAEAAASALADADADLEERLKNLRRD

For assay [1], the target named is T2, full-length human CHMP1B with a single cysteine mutation at position 2 (CHMP1B^S2C) (human) (UniProt Q7LBR1).
T2 sequence: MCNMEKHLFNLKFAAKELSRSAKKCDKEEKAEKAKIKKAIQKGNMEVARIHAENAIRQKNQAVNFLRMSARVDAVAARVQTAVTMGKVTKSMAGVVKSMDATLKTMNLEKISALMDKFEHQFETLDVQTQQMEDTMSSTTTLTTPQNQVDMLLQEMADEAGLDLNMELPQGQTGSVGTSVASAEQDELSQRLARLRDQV

B1: Human VPS4B with a single mutation at position 2 for maleimide fluorophore labeling (VPS4B^S2C) (enzyme)
chain: MCSTSPNLQKAIDLASKAAQEDKAGNYEEALQLYQHAVQYFLHVVKYEAQGDKAKQSIRAKCTEYLDRAEKLKEYLKNKEKKAQKPVKEGQPSPADEKGNDSDGEGESDDPEKKKLQNQLQGAIVIERPNVKWSDVAGLEGAKEALKEAVILPIKFPHLFTGKRTPWRGILLFGPPGTGKSYLAKAVATEANNSTFFSISSSDLVSKWLGESEKLVKNLFQLARENKPSIIFIDEIDSLCGSRSENESEAARRIKTEFLVQMQGVGVDNDGILVLGATNIPWVLDSAIRRRFEKRIYIPLPEPHARAAMFKLHLGTTQNSLTEADFRELGRKTDGYSGADISIIVRDALMQPVRKVQSATHFKKVRGPSRADPNHLVDDLLTPCSPGDPGAIEMTWMDVPGDKLLEPVVSMSDMLRSLSNTKPTVNEHDLLKLKKFTEDFGQEG
modifications: LD655 maleimide dye on the cysteine introduced at position 2 (labelled during the purification)
On to B1, for which the rate of ATP hydrolysis by VPS4B (malachite green; 0.2 uM enzyme, 2 uM ESCRT-III subunit, 2 mM ATP, 10 min, 37 °C) (ATP/VPS4B·min) with full-length CHMP2A turned out to be 12.7; in assay [1] it was 3.4.

The values are drawn from PMC9303997.
